Source: article PMC11633510

Assays:
Recombinant Protein A [1] = biological target: Recombinant Protein A (UniProt P38507); test: MetaSPR; quantitative detection by differential absorption spectra, dual-wavelength OD difference (OD615-OD590); triple-layer chip; Protein A immobilised; IgG 0-10 µg/mL
Recombinant Protein A [2] = biological target: Recombinant Protein A (UniProt P38507); test: MetaSPR; single-layer (Ti-Au) nanocup array chip, 96-well; Protein A (20 µg/mL in CBS buffer) immobilised 16 h, blocked with 1% BSA; IgG 0.1-66.7 nM in PBS; 10 min association, 15 min dissociation
Recombinant Protein A [3] = biological target: Recombinant Protein A (UniProt P38507); test: MetaSPR; double-layer (Ti-Ag-Au) nanocup array chip, 96-well; Protein A (20 µg/mL in CBS buffer) immobilised 16 h, blocked with 1% BSA; IgG 0.1-66.7 nM in PBS; 10 min association, 15 min dissociation
Recombinant Protein A [4] = biological target: Recombinant Protein A (UniProt P38507); test: MetaSPR; triple-layer (Ti-Au-Ag-Au) nanocup array chip, 96-well; Protein A (20 µg/mL in CBS buffer) immobilised 16 h, blocked with 1% BSA; IgG 0.1-66.7 nM in PBS; 10 min association, 15 min dissociation
Recombinant Protein A [5] = biological target: Recombinant Protein A (UniProt P38507); test: MetaSPR; quadruple-layer (Ti-Ag-Au-Ag-Au) nanocup array chip, 96-well; Protein A (20 µg/mL in CBS buffer) immobilised 16 h, blocked with 1% BSA; IgG 0.1-66.7 nM in PBS; 10 min association, 15 min dissociation

Question: How did the maximum reaction value (dual-wavelength OD difference) at the highest IgG concentration (10 µg/mL) (Recombinant Protein A [1]) turn out when “Immunoglobulin Antigen (Human IgG) (antibody)” was run?
Answer: 0.435

Question: What about the Kd (Recombinant Protein A [2]) of the same substance?
Answer: 240 pM

Question: What about the Kd (Recombinant Protein A [3]) of the same substance?
Answer: 116 pM

Question: What about the Kd (Recombinant Protein A [4]) of the same substance?
Answer: 122 pM

Question: What about the Kd (Recombinant Protein A [5]) of the same substance?
Answer: 218 pM
